Data as given in the supplement of paper PMC12042874.
± gives the uncertainty stated by the source.

Experiment: amyloid nucleation score (Sup35N fusion, yeast selection) (log enrichment); library NNK3; higher = more nucleation; inactive = no reads after selection
How it was run: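 In psi-negative yeast, Sup35N fusions carrying peptides of 20 random codons were induced with 100 μM copper sulfate for 24 hours. The cells then grew 7 days at 30°C on medium lacking adenine and uracil, and plasmid inserts from input and output were Illumina-sequenced, excluding sequences with under 100 input reads. Nucleation score is the DiMSum log enrichment of output over input reads, centred on the mode score of non-aggregating sequences.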

Substance	amyloid nucleation score
TSFGYNLGLRRCSYRMTAEW	1.44 ± 0.13
TSGQSVVSSRTHCVIRCRRR	inactive
TSLLAELLVWWE	inactive
TSLSTSKVLDASLRMDQLST	inactive
TSMSGDVHVVYVVVEHVKPP	2.46 ± 0.089
TSNRGDWVHFTVYSFYESTM	inactive
TSRLFHKFLGYAPSRTNSSL	inactive
TSTYSFCTRVWYPASIIFGR	inactive
TSWTGWVRCHIGSSNISALT	inactive
TSYKYDSNR	inactive
TSYSKEVFQLLKWVGNLIRG	inactive
TTELVF	inactive
TTEPDRATLSYR	inactive
TTFFGCSFGLCRAIIGLDNV	1.34 ± 0.076
TTKEVESNSAHCPKSSLACT	inactive
TTRIVSNCCMLIVL	1.29 ± 0.12
TVAEMNIMLC	2.37 ± 0.076
TVFSCYSWELEMMLWDGSYM	inactive
TVGQQWRPSRKLSSSSAIRN	inactive
TVGTIPFWVALPSTSLNR	inactive
TVHYSLIRWTSGNCGLGYW	0.841 ± 0.17
TVIFWWLKGNRPVSMIDSDI	inactive
TVLGELKVLFRYWFHIIWYF	inactive
TVLYFA	inactive

Substance	amyloid nucleation score
TVRDELSSVFL	inactive
TVRFLVHYITAKGKSVGITK	inactive
TVRKSSIGGCVASYPFEHNK	inactive
TVSKANWVLLEFLTFCGMI	1.74 ± 0.096
TVSYSQPVWSMDFIVGYLGV	inactive
TVTFYNCIVGCVSNWVSVQG	1.77 ± 0.068
TVYEA	inactive
TVYSGWCTREVRICEPMNRG	inactive
TWGKRFYSGIMVQCIREEWA	-0.741 ± 1.7
TWGPHLIPLFNNL	inactive
TWQFSGYWCSLYMSA	1.67 ± 0.12
TWRFVPRPLLVCMLYRYLCK	inactive
TWSRRGSGAPACVVVTWVPA	inactive
TWWSEGIYELKYGLFWLGVV	inactive
TYAYELRIFSDYSHGLGFDP	-0.659 ± 0.88
TYEVPGPPSQRSLSY	inactive
TYFILKETATDLN	inactive
TYKIIRYFLNLICSFRGPMP	inactive
TYLEMDIAPAMRLCS	inactive
TYLHDLYT	inactive
TYMGSTYLSNSYVLVSNNIK	1.72 ± 0.12
TYYRCSSANLSSGRAEVYKY	inactive
VACTVSEAYKCTLIWTHLVR	inactive
VAFYMMYSSGPQRTRRWVTV	inactive

Substance	amyloid nucleation score
VAGSLVAKP	inactive
VAKVNCTW	-0.431 ± 0.9
VALAGNYCSANVVHCMFLNL	inactive
VARGNMCNL	inactive
VASTVSRVAKDTKAKVAYR	inactive
VATYVPCPCYSMFCAGIC	-0.355 ± 0.7
VAVVIEYMKLVVLG	inactive
VCCFWVVDIKILFSGLPISS	2.28 ± 0.069
VCDSHQ	inactive
VCFILFSS	inactive
VCFVWFRRWPTIPR	inactive
VCGILRIIILGLMYVEALGW	inactive
VCLMNVSLRRSSFGATTVLA	inactive
VCMVEDFCCLPFDMLLYWLT	inactive
VCNIAQ	inactive
VCQPNRSQIQGIFLLRNYSV	inactive
VCRWSGGGEIGIICGLVSLV	inactive
VCSMWSSSSMIKLRALDDYM	inactive
VCTFTETHGTYLVFALYQPD	0.367 ± 0.54
VCYYVFRTDIIIVIRVDAWL	inactive
VDCMATSQGRIRKYVNFVIW	2.35 ± 0.08
VDEAEKGVNHLERRGSYSRY	inactive
VDFRYCCGFV	0.824 ± 0.26
VDHRGALVEKFMNNSIWTSF	0.122 ± 0.98

Substance	amyloid nucleation score
VDIGTYMFKMTHADRWVDHG	inactive
VDKLFCWGLYGLATVDNRVY	inactive
VDLRLDY	inactive
VDNSERLSLHPSVHMGDMGF	inactive
VDSSMDLHSIS	inactive
VDWWSALEDYYSLELLMEVK	inactive
VEDCSFAVVKILWYRPFMIW	inactive
VEIISFSVNKTFQAVFGVDK	1.47 ± 0.072
VEPDRERKENVC	inactive
VEQLTEDKRWRSACKQRRKV	inactive
VESVRVLVINPNSDNQVLYL	inactive
VFAFGNIGLVRWFVI	inactive
VFCPTWFTMGGVCIAVAHLV	0.486 ± 0.33
VFCVRRSLQNLRNSGNDSHR	inactive
VFDDY	inactive
VFDGWGLFRLSTICMCLQRH	inactive
VFFVNHFNVWLERM	inactive
VFICSAVTNNSWCERLDFSA	1.5 ± 0.14
VFLSICSEGTFCLGDLSGCV	2.43 ± 0.082
VFMKNLNKIDILTSGLDHIY	inactive
VFNGFVLKVEQVSIGVC	inactive
VFPGTAVNHMESVHGWLVNY	inactive
VFQHGWGEVLRSRQGLLGSR	inactive
VFRMCVYIDLVSLDSYYDVL	inactive

Substance	amyloid nucleation score
VFSIND	inactive
VFSRKKYRHPWMYAVTFGYC	inactive
VFVQTLILWVHSRIAALQDS	inactive
VFVSLISSMTIFTCFVPECE	3.28 ± 0.069
VFVTM	inactive
VFYGKGETYQEWHSLYFLKS	-0.067 ± 0.98
VFYIHIREVTSVVIILVWCS	inactive
VFYIIW	1.89 ± 0.063
VFYIYSRW	1.69 ± 0.091
VFYSLMILSLLNSRRDGLHQ	0.429 ± 0.48
VGAFLKLNRNLMTFSMARNY	inactive
VGASQRVYSLLST	inactive
VGDHDPSRFCQDNLCLSRCL	inactive
VGHIRVLDEDNNYMSFYDMR	inactive
VGKFSHACLRIN	inactive
VGKWGFQEGST	inactive
VGLNVSWAYIMVAEYVVYMS	-0.698 ± 0.53
VGNWYGKTIGMSSLEFLMSR	inactive
VGPRGGNVSEGPPRVWVNGC	inactive
VGQLFTSSSSVVSSGCMIVD	inactive
VGQWYGFMFWLLLLIIQS	inactive
